Columns and labels:
Assay in all cases: cell-based or functional assay
[1] = target: Lrp5 + Fzd7 co-expressed on STF (superTOPFLASH) reporter cells (UniProt Q91VN0)
[2] = target: Lrp5 + Fzd4 co-expressed on STF (superTOPFLASH) reporter cells (UniProt Q91VN0)
[3] = target: Lrp6 + Fzd4 co-expressed on STF (superTOPFLASH) reporter cells (UniProt O88572)
[4] = target: Lrp6 + Fzd7 co-expressed on STF (superTOPFLASH) reporter cells (UniProt O88572)
Sequence of Lrp6 + Fzd7 co-expressed on STF (superTOPFLASH) reporter cells (O88572 20-1613 limits assumed, chain 1 of 2, other chains not shown): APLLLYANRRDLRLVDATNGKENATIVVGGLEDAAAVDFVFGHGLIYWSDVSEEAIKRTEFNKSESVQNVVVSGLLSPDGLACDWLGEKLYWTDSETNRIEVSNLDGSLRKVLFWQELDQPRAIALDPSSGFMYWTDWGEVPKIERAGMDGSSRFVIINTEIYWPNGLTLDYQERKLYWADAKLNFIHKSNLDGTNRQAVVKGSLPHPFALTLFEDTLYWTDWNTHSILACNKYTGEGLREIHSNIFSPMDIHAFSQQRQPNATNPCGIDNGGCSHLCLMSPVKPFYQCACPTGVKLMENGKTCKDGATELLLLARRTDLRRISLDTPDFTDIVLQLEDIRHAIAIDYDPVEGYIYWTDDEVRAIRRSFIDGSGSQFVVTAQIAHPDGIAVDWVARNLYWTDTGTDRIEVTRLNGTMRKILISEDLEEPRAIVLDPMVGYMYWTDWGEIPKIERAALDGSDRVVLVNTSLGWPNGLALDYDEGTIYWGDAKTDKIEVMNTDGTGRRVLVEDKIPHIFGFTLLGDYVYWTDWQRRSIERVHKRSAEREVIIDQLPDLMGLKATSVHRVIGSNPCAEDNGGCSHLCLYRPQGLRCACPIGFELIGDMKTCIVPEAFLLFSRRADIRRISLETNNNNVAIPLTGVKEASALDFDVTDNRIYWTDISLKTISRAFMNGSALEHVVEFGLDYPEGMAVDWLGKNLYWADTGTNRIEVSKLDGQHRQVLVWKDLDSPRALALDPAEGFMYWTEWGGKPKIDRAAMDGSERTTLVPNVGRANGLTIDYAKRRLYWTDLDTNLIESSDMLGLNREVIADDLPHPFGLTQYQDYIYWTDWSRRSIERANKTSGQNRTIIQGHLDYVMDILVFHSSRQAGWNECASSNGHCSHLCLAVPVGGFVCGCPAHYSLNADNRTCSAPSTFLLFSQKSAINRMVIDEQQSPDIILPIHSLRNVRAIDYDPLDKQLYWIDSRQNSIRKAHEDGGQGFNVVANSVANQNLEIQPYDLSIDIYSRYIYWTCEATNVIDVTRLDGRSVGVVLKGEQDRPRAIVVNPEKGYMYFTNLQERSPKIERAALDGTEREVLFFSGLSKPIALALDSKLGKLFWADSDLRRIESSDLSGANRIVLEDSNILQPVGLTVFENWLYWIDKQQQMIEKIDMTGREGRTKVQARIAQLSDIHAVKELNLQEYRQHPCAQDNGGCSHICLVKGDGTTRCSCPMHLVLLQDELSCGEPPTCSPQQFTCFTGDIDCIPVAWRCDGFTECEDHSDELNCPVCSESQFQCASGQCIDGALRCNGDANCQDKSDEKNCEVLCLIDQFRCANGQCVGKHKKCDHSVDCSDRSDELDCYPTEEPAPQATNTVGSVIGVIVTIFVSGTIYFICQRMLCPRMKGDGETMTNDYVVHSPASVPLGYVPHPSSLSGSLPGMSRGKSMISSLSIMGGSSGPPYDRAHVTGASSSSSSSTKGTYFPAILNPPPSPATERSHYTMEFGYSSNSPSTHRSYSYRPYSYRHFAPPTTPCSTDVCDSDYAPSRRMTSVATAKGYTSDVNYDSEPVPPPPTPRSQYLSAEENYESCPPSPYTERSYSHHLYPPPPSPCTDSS

Sequence of Lrp6 + Fzd4 co-expressed on STF (superTOPFLASH) reporter cells (O88572 20-1613 limits assumed, chain 1 of 2): as the sequence (O88572 20-1613 limits assumed, chain 1 of 2, other chains not shown) above
Sequence of Lrp6 + Fzd4 co-expressed on STF (superTOPFLASH) reporter cells (Q61088 37-537 limits assumed, chain 2 of 2, further chain): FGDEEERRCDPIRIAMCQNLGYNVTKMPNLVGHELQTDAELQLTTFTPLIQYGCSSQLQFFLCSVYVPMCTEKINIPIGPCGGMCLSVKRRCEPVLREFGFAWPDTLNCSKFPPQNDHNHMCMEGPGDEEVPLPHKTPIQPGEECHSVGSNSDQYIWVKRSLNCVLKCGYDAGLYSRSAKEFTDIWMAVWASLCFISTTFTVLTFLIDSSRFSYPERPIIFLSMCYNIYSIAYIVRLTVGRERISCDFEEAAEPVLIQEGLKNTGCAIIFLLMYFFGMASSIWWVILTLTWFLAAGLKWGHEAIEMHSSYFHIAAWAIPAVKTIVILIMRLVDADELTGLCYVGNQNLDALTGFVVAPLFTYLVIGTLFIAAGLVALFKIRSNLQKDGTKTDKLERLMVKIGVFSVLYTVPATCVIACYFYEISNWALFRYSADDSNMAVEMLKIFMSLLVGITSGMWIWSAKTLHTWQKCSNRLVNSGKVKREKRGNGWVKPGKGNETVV
Sequence of Lrp5 + Fzd7 co-expressed on STF (superTOPFLASH) reporter cells (Q91VN0 31-1614 limits assumed, chain 1 of 2, other chains not shown): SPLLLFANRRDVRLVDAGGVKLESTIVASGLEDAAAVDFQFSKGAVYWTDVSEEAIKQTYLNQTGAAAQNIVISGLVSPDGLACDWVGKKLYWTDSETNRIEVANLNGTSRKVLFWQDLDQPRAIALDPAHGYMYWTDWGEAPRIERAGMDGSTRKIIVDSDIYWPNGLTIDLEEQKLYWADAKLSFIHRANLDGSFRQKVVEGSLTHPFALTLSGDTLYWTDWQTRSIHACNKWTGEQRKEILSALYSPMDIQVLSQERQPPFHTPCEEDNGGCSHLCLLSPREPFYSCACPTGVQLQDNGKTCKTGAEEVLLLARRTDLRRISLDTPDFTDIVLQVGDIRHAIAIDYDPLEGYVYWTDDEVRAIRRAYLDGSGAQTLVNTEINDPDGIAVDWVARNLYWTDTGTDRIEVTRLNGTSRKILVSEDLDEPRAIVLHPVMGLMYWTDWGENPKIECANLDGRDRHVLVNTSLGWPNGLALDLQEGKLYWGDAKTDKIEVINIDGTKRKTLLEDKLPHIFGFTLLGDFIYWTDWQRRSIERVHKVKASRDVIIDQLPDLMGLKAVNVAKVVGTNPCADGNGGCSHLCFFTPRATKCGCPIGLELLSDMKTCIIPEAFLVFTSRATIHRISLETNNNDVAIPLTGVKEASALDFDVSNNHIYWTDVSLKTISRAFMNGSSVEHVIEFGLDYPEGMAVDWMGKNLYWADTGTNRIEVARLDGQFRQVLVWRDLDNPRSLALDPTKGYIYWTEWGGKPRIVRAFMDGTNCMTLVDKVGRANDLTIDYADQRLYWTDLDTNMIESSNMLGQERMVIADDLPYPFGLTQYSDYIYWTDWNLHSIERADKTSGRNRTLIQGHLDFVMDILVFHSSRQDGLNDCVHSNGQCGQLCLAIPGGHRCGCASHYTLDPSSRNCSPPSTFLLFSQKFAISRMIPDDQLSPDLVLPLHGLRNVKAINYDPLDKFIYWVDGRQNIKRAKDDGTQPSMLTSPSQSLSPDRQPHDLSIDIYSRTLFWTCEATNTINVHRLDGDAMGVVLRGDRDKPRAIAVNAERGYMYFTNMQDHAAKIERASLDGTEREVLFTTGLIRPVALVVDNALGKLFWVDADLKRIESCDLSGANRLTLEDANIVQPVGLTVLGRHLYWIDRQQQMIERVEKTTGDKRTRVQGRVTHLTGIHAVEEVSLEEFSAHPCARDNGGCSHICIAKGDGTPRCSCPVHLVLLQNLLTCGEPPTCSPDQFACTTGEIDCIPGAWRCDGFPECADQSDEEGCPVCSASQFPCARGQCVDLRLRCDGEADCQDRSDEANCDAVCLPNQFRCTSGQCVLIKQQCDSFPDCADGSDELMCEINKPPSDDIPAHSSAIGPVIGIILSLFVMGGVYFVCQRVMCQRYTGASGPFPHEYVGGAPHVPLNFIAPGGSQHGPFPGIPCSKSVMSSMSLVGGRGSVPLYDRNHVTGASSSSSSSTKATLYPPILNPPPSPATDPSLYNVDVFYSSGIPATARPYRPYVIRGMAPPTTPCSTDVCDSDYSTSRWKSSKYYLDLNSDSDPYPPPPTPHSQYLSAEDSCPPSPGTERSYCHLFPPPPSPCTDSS
Sequence of Lrp5 + Fzd4 co-expressed on STF (superTOPFLASH) reporter cells (Q91VN0 31-1614 limits assumed, chain 1 of 2): as the sequence (Q91VN0 31-1614 limits assumed, chain 1 of 2, other chains not shown) above
Sequence of Lrp5 + Fzd4 co-expressed on STF (superTOPFLASH) reporter cells (Q61088 37-537 limits assumed, chain 2 of 2, further chain): as the sequence (Q61088 37-537 limits assumed, chain 2 of 2, further chain) above

Substance: Wnt7b (ORF cloned from C57BL6 kidney cDNA, expressed by 293 cells or bone marrow macrophages) (from UniProt P28047 25-349) (ligand)
- Firefly Luciferase, absolute light units, STF reporter cells co-cultured with 293-Wnt7b (293-control: 16172) (absolute light units) [1]: 51600
- Firefly Luciferase, absolute light units, STF reporter cells co-cultured with 293-Wnt7b (293-control: 6430) (absolute light units) [2]: 26900
- Firefly Luciferase, absolute light units, STF reporter cells co-cultured with 293-Wnt7b (293-control: 573) (absolute light units) [3]: 10100
- Firefly Luciferase, absolute light units, STF reporter cells co-cultured with 293-Wnt7b (293-control: 464) (absolute light units) [4]: 11500

Reference: patent publication US8703708
